Experiments:
[1] = target: T1, mouse (Mus musculus) B7H4, full length, on HEK-293F cells (mouse, UniProt Q7TSP5 25-257); experiment: flow cytometry, HEK-293F cells transfected with mouse B7H4 [panel Mouse B7H4]
T1 construct: Uniprot Q7TSP5; also called mouse B7H4
T1 sequence: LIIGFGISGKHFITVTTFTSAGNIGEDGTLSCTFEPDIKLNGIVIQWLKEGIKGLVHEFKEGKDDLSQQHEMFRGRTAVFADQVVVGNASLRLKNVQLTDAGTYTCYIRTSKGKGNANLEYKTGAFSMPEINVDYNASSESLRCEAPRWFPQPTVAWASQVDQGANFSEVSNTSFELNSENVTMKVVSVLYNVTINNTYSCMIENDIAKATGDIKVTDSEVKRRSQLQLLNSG
Protocol: (§1) Cells (3×10⁴ cells/well) were incubated in polystyrene 96-well round-bottom plates (Greiner bio-one, cat. no. 650180) with serial dilutions of antibodies (ranging from 0.000458 to 30 μg/mL in 4-fold dilution steps) in 100 μL PBS/0.1% BSA/0.02% azide (staining buffer) at 4° C. for 30 min. Experiments were performed in technical duplicate. After washing twice in staining buffer, cells were incubated in 50 μL secondary antibody at 4° C. for 30 min. As a secondary antibody, R-Phycoerythrin (PE)-conjugated goat-anti-human IgG F(ab′)₂ (1:500 in FACS buffer; Jackson ImmunoResearch Laboratories, Inc., West Grove, PA, cat. no. 109-116-098), was used. Cells were washed twice in staining buffer, re-suspended in 30 μL FACS buffer containing Topro-3 (1:10,000 dilution) and analyzed on an iQue Screener (Intellicyt Corporation, USA). Binding curves were analyzed using non-linear regression (sigmoidal dose-response with variable slope) using GraphPad Prism V7.02 software (GraphPad Software, San Diego, CA, USA).

[2] = target: T2, pig (Sus scrofa) B7H4, full length, on HEK-293F cells (pig, UniProt Q7Z7D3 26-282 (human entry)); experiment: flow cytometry, HEK-293F cells transiently transfected with pig B7H4, PE anti-human IgG F(ab')2 [panel Pig B7H4]
T2 construct: Uniprot F1SAY4; also called pig B7H4
T2 chain: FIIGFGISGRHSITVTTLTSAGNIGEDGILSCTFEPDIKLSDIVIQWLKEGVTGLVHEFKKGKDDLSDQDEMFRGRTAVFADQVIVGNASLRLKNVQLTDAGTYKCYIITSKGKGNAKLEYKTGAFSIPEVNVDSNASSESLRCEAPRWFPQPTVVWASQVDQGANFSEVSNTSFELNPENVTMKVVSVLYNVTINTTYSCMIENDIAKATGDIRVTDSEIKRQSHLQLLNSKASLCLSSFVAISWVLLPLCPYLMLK
Protocol: as §1

[3] = target: T3, human B7H4, full length, on cells (human, UniProt Q7Z7D3 25-282); experiment: cell-based or functional assay
T3 sequence: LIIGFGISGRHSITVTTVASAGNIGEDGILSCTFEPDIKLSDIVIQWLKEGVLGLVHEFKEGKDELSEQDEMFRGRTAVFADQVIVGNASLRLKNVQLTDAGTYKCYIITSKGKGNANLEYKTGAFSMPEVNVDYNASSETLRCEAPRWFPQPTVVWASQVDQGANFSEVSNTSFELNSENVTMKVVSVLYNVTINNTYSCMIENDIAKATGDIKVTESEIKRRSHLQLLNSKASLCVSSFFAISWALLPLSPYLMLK

[4] = target: T3, human B7H4, full length, on cells; experiment: flow cytometry on SK-BR3 tumor cells [panel SK-BR3 cells]
Protocol: as §1
Binding was analyzed by flow cytometry as described above.

[5] = target: T4, recombinant hIgG1 Fc-tagged cynomolgus monkey B7H4 (Creative BioMart, cat. no. VTCN1-1517R) (cynomolgus monkey, UniProt Q7Z7D3 25-259 (human entry)); experiment: BLI (Octet HTX); Fc-tagged cynomolgus B7H4 coupled to AR2G sensor, bispecific antibody in solution (monovalent B7H4 binding); 2nd experiment (average of n = 3)
T4 construct: Bought protein; also called cynomolgus monkey B7H4 extracellular domain
T4 sequence: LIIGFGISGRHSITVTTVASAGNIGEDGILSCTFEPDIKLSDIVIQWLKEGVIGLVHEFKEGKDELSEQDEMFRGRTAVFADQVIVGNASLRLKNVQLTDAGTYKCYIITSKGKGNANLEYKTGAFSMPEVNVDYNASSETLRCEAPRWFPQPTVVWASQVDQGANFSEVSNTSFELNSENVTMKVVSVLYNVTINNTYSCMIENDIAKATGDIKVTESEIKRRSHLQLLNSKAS
Protocol: In addition, the affinity of for cynomolgus monkey B7H4 was determined by BLI. […] Amine Reactive 2nd Generation (AR2G) biosensors (FortéBio, cat. no. 18-5092) were activated by reaction with 20 mM EDC (N-(3-Dimethylaminopropyl)-N′-ethylcarbodiimide hydrochloride) (FortéBio, cat. no. 18-1033) and 10 mM s-NHS (N-hydroxysulfosuccinimide sodium salt) (FortéBio, cat. no. 18-1067) for 300 s. The activated sensors were loaded with 10 μg/mL recombinant hIgG1 Fc-tagged cynomolgus monkey B7H4 (Creative BioMart, cat. no. VTCN1-1517R) in 10 mM Sodium Acetate pH 4.0 (FortéBio, cat. no. 18-1068) for 600 s and quenched with 1 M ethanolamine pH 8.5 (FortéBio, cat. no. 18-1071) for 300 s. […] A molecular mass of 150 kDa of the antibodies was used for calculations. For each antibody a reference sensor was used, which was incubated with Sample Diluent instead of antibody.
Data were acquired using Data Acquisition Software v9.0.0.49d (FortéBio) and analyzed with Data Analysis Software v9.0.0.12 (FortéBio). Data traces were corrected per antibody by subtraction of the reference sensor. The Y-axis was aligned to the last 10 s of the baseline, Interstep Correction alignment to dissociation and Savitzky-Golay filtering were applied. Data traces with a response<0.05 nm were excluded from analysis. The data was fitted with the 1:1 Global Full fit model using a window of interest for the association and dissociation times set at 100 s and 200 s respectively.
The experiment was performed as described above, with some small exceptions.

B1: IgG1-B7H4-C1-N52S-FEAR (antibody, V domains shown)
VH: QVQLQQWGAGLLKPSETLSLTCAVYGGSFSGYYWSWIRQPPGKGLEWIGEISHSGSTNYNPSLKSRVTISIDTSKNQFSLKLTSVTAADTAVFYCARGLFNWNFDSWGQGTLVTVSS
VL: DIQMTQSPSSLSASVGDRVTITCRASQGIRNDLGWYQQKPGKAPKRLIYGASSLQSGVPSRFSGSGSGTEFTLTISSLQPEDFATYYCLQHNSYPRTFGQGTTVEIKR
notes: Full length human IgG1 with L234F, L235E, D265A, K409R (FEAR) heavy chain constant region and kappa light chain; bivalent, monospecific; also called IgG1-B7H4-C1-052S-FEAR
[1]
  EC50 (read off the curve): ~0.3 µg/mL
[2]
  binding result: binds

B2: bsIgG1-huCD3-H101G-FEALxB7H4-C1-N52S-FEAR (bispecific antibody)
heavy 1: not shown
light 1: not shown
heavy 2: QVQLQQWGAGLLKPSETLSLTCAVYGGSFSGYYWSWIRQPPGKGLEWIGEISHSGSTNYNPSLKSRVTISIDTSKNQFSLKLTSVTAADTAVFYCARGLFNWNFDSWGQGTLVTVSSASTKGPSVFPLAPSSKSTSGGTAALGCLVKDYFPEPVTVSWNSGALTSGVHTFPAVLQSSGLYSLSSVVTVPSSSLGTQTYICNVNHKPSNTKVDKRVEPKSCDKTHTCPPCPAPEFEGGPSVFLFPPKPKDTLMISRTPEVTCVVVAVSHEDPEVKFNWYVDGVEVHNAKTKPREEQYNSTYRVVSVLTVLHQDWLNGKEYKCKVSNKALPAPIEKTISKAKGQPREPQVYTLPPSREEMTKNQVSLTCLVKGFYPSDIAVEWESNGQPENNYKTTPPVLDSDGSFFLYSRLTVDKSRWQQGNVFSCSVMHEALHNHYTQKSLSLSPGK
light 2: DIQMTQSPSSLSASVGDRVTITCRASQGIRNDLGWYQQKPGKAPKRLIYGASSLQSGVPSRFSGSGSGTEFTLTISSLQPEDFATYYCLQHNSYPRTFGQGTTVEIKRTVAAPSVFIFPPSDEQLKSGTASVVCLLNNFYPREAKVQWKVDNALQSGNSQESVTEQDSKDSTYSLSSTLTLSKADYEKHKVYACEVTHQGLSSPVTKSFNRGEC
notes: also called bslgG1-huCD3-H101G-FEALxB7H4-C1-N52S-FEAR; BslgG1-huCD3-H101G-FEALxB7H4-C1-N52S-FEAR
[3]
  IC50 of T cell-mediated cytotoxicity, HCC1954 cells, highest of 4 donors: 0.22 µg/mL
  IC50 of T cell-mediated cytotoxicity, HCC1954 cells, lowest of 4 donors: 0.06 µg/mL
  IC50 of T cell-mediated cytotoxicity, MCF7 cells, highest of 4 donors: 1.29 µg/mL
  IC50 of T cell-mediated cytotoxicity, MCF7 cells, lowest of 4 donors: 0.55 µg/mL
  IC50 of T cell-mediated cytotoxicity, MDA-MB-468 cells, highest of 4 donors: 0.16 µg/mL
  IC50 of T cell-mediated cytotoxicity, MDA-MB-468 cells, lowest of 4 donors: 0.08 µg/mL
  IC50 of T cell-mediated cytotoxicity, NCI-H16650 cells, highest of 4 donors: 5.07 µg/mL
  IC50 of T cell-mediated cytotoxicity, NCI-H16650 cells, lowest of 4 donors: 1.67 µg/mL
  IC50 of T cell-mediated cytotoxicity, OVCAR3 cells, highest of 4 donors: 1.63 µg/mL
  IC50 of T cell-mediated cytotoxicity, OVCAR3 cells, lowest of 4 donors: 0.09 µg/mL
  IC50 of T cell-mediated cytotoxicity, SK-BR3 cells, highest of 4 donors: 0.22 µg/mL
  IC50 of T cell-mediated cytotoxicity, SK-BR3 cells, lowest of 4 donors: 0.09 µg/mL
[4]
  EC50 (read off the curve): ~1 µg/mL
[5]
  Kd: 25 nM
  koff: 0.0027 s⁻¹
  kon: 120000 M⁻¹ s⁻¹

From patent publication US20240383982A1 (Genmab, published 2024)
